Experimental findings from patent US20090318342A1, “Compounds” (IMPERIAL INNOVATIONS LIMITED, priority 2005, published 2009) are described below.

Assay [1] deals with TACE/ADAM17 on human monocytic cells (THP-1 cells; monocyte-derived macrophages) (human) (UniProt P78536).
Assay [2] concerns the target soluble form of TACE in which the transmembrane and C-terminal cytoplasmic domains are deleted (TACE R651) (human) (UniProt P78536). The assay can be described thus: TACE inhibition kinetics at pH 7.5.
Assay [3] deals with T1, ADAMTS-4 (as used in Example 4; form not stated) (Homo sapiens (Human)) (UniProt O75173).
T1 sequence: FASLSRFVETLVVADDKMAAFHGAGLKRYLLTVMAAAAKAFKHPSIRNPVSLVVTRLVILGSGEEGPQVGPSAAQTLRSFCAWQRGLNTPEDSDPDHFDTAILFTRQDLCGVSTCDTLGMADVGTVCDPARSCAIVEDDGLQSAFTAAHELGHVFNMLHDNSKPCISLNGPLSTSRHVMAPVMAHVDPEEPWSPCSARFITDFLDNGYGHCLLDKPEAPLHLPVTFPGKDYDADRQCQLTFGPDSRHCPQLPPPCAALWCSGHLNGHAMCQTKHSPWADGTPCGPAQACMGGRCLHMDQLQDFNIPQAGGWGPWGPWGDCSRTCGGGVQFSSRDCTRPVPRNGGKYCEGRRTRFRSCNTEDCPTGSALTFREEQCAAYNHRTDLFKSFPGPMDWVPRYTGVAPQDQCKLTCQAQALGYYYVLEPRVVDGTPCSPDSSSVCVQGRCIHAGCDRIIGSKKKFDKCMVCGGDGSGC
Kind of assay: GST-IGD-FLAG substrate assay, Ki(app).

Assay [4] deals with ADAMTS-5 (Homo sapiens (Human)) (UniProt Q9UNA0). The assay can be described thus: GST-IGD-FLAG substrate assay, Ki(app).
Assay [5] deals with catalytic domain of stromelysin 1 (MMP-3(ΔC)) (Homo sapiens (Human)) (UniProt P08254). Kind of assay: enzyme inhibition kinetics, Ki(app), as in Example 1.
Assay [6] has as its target full-length collagenase 1 (MMP-1) (Homo sapiens (Human)) (UniProt P03956). Described as above.
In assay [7] the target is gelatinase A (MMP-2) (Homo sapiens (Human)) (UniProt P08253). Described as above.
Assay [8] deals with full-length collagenase 1 (MMP-1) (Homo sapiens (Human)) (UniProt P03956). Kind of assay: MMP-1 inhibition under the conditions used for TACE activity measurements.
Assay [9] concerns the target soluble form of TACE in which the transmembrane and C-terminal cytoplasmic domains are deleted (TACE R651) (human) (UniProt P78536). Kind of assay: TACE inhibition kinetics, Ki(app), pH 9.0, fit with equation 3 (cooperative).
Assay [10] has the same target.

full-length collagenase 1 (MMP-1) (Homo sapiens (Human)), sequence (P03956 100-469 limits assumed): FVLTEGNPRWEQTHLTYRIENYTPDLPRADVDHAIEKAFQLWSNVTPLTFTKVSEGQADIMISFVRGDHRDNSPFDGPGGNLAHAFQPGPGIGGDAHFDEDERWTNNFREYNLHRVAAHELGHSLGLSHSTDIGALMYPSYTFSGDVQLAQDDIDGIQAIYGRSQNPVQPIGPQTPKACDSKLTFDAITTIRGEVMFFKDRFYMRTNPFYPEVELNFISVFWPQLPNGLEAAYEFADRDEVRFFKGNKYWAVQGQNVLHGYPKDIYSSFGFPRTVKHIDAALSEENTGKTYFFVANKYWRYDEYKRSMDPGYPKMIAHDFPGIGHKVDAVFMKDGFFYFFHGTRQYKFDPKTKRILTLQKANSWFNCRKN
gelatinase A (MMP-2) (Homo sapiens (Human)), sequence (P08253 110-660 limits assumed): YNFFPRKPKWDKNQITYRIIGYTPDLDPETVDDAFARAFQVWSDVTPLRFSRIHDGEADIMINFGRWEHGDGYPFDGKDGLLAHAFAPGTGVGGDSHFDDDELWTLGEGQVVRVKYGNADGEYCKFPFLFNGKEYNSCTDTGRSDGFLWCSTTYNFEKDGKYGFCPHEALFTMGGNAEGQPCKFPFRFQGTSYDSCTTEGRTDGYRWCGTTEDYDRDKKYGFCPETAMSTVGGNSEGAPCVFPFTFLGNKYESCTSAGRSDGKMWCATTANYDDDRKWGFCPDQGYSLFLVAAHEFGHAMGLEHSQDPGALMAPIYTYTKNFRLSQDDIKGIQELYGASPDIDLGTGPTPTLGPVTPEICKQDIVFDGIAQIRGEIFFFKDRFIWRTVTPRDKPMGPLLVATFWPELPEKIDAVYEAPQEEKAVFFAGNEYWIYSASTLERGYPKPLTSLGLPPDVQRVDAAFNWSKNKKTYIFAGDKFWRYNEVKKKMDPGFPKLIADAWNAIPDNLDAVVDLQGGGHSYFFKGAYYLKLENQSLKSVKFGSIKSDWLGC

B1: wild-type N-TIMP-3 (N-terminal inhibitory domain of tissue inhibitor of metalloproteinase-3), C-terminally His-tagged (protein)
chain: CTCSPSHPQDAFCNSDIVIRAKVVGKKLVKEGPFGTLVYTIKQMKMYRGFTKMPHVQYIHTEASESLCGLKLEVNKYQYLLTGRVYDGKMYTGLCNFVERWDQLTLSQRKGLNYRYHLGCN
B1: in assay [1], the LPS stimulated TNFα release by monocyte-derived macrophages (ELISA) is 180 nM. Further, the Ki was determined as 26 nM in assay [2]; 2.4 nM in assay [3]; 0.4 nM in assay [4]; 1.8 nM in assay [5]; 8.2 nM in assay [6]; 5.1 nM in [7]. Also, the Ki in assay [8] came out at 1.6 nM; in assay [9], 13.7 nM.

B2: (-2A)N-TIMP-3 (protein)
chain: AACTCSPSHPQDAFCNSDIVIRAKVVGKKLVKEGPFGTLVYTIKQMKMYRGFTKMPHVQYIHTEASESLCGLKLEVNKYQYLLTGRVYDGKMYTGLCNFVERWDQLTLSQRKGLNYRYHLGCN
Turning to B2, the inhibition of TACE activity (% inhibition at 100 nM) in assay [10] was in the range of 80 to 90. In [5], this molecule registered a Ki of more than 250 nM.
